The values below come from paper PMC8278974.

A word on the stoichiometry N: it is a count of units in the complex or per binding partner.

Common to all, as to experiment: gel electrophoresis; eluent of Ni-charged magnetic beads (0.5 M NaCl, 20 mM HEPES, 500 mM imidazole, 0.5% Genapol X-80, pH 8.0) after heating the lysate at 90 °C for 10 min; 4–20% Mini-PROTEAN TGX Gel, 200 V for 27 min; self-assembly, octamer band
Test [1] deals with MspA-D (M2 MspA with aspartic acid at site 91) (Mycobacterium smegmatis).
Test [2] has as its target M2 MspA (Mycobacterium smegmatis porin A mutant M2) (Mycobacterium smegmatis) (UniProt A0QR29).
The target in test [3] is MspA-C (M2 MspA with cysteine at site 91) (Mycobacterium smegmatis).
Test [4] has as its target MspA-H (M2 MspA with histidine at site 91) (Mycobacterium smegmatis).
In test [5] the target is MspA-M (M2 MspA with methionine at site 91) (Mycobacterium smegmatis).

Substance “MspA-D (M2 MspA with aspartic acid at site 91) (natural protein)” had a stoichiometry N in test [1] of 8.

As to “M2 MspA (Mycobacterium smegmatis porin A mutant M2) (from UniProt A0QR29 28-211) (natural protein)”, the stoichiometry N in test [2] came out at 8.

Take “MspA-C (M2 MspA with cysteine at site 91) (natural protein)”: the stoichiometry N in test [3] came out at 8.

Substance “MspA-H (M2 MspA with histidine at site 91) (natural protein)” gave a stoichiometry N in test [4] of 8.

Regarding “MspA-M (M2 MspA with methionine at site 91) (natural protein)”, in test [5], the stoichiometry N was 8.
